Measurements taken from article doi:10.1101/2021.05.19.444882.

Tests used:
[1] = target: ChAdOx1 hexon protein (chimpanzee adenovirus Y25 (ChAdV-Y25)); test: cryo-EM structure
[2] = target: ChAdOx1 pIX (chimpanzee adenovirus Y25 (ChAdV-Y25)); test: cryo-EM structure
[3] = target: ChAdOx1 fiber-knob protein (chimpanzee adenovirus Y25 (ChAdV-Y25)); test: crystal structure
[4] = target: ChAdOx1 penton protein (chimpanzee adenovirus Y25 (ChAdV-Y25)); test: cryo-EM structure

## ChAdOx1 hexon protein (natural protein)
[1]
  stoichiometry N: 3

## ChAdOx1 pIX (natural protein)
[2]
  stoichiometry N: 4

## ChAdOx1 fiber-knob protein (domain or fragment)
[3]
  stoichiometry N: 3

## ChAdOx1 penton protein (natural protein)
[4]
  stoichiometry N: 5
